From patent publication US20220033784A1 (priority 2020, published 2022)
Residue numbers refer to the chain shown, from its start. In names and notes the source's numbering stands.

B1: IL-2gv1 (protein)
chain: APTSSSTKKTQLQLEHLLLDLQMILNGINNYKNPKLTNMTTFNFTMPKKATELKHLQCLEEELKPLEEVLNLAQSKNFHLRPRDLISNINVIVLELKGSETTFMCEYADETATIVEFLNRWITFCQSIISTLT
B2: Fc-IL2-K43N:Y45T-L72N:Q74T (protein)
chain: B1 chain with N38R, T40L, L72N, Q74T
B3: IL-2gv2 (protein)
chain: B1 chain with N38R, T40L, L72N, Q74T
B4: Fc-IL2-R38N:L40T-K43N:Y45T (protein)
chain: B1 chain

Key:
CD8 T cells [1] = assay: In vivo expansion of CD8 T cells (spleen immunophenotyping); set-up: species or system mice; settings: 0.5, 1, or 2 mg/kg daily for 4 days SC; spleens day 3
Description: (§1) Mice were randomized into groups to receive one of the molecules listed above or PBS control. The treatment groups were as follows: PBS; Fc-IL2; Fc-IL2v; […]; Immunophenotyping was conducted on day 3 after the first treatment (day 0) by collecting spleens from each group.

Treg cells [2] = assay: In vivo expansion of Treg cells (spleen immunophenotyping); set-up: species or system mice; settings: 0.5, 1, or 2 mg/kg daily for 4 days SC; spleens day 3
Description: as §1

Treg cells [3] = assay: pSTAT5 flow cytometry in hPBMCs: Treg cells; format: cell-based, human; settings: pSTAT5 MFI in hPBMCs, 20 minutes at 37° C.; read-out: EC50 Treg cell
Description: (§2) In this experiment, the ability of the IL-2 variants to activate CD8 T cells, NK cells, and Treg cells was measured by monitoring relative changes in pSTAT5 in response to treatment of the cells with the IL-2 variants. The IL-2 variants tested in this experiment were each fused to a human IgG Fc domain as described in Example 15. […]; Blood from healthy volunteers was taken and hPBMCs were isolated using a ficoll-paque (GE Healthcare) gradient, washed with PBS to remove platelets, and cleared of red blood cells using ACK lysis buffer (Gibco). Cells were then plated at 1*10e6 cells/well in 90 uL serum-free RPMI 1640 media (Gibco) and allowed to rest for 2-4 hours at 37° C. After resting, cells were treated the IL-2 molecules listed above (10 uL), at the indicated concentrations for 20 minutes at 37° C., and 25 uL 20% PFA was immediately added with gentle pipetting. Cells were then pelleted by centrifugation and aspirated (400 RCF, 7 minutes).
(§3) Phosflow Perm Buffer III (BD Biosciences) was added (200 uL), and the cells were mixed gently by pipetting up and down once to prevent clumping. Cells were then washed twice with 200 uL FACS buffer followed by pelleting by centrifugation (400 RCF, 7 minutes). Cells were in resuspended in 200 uL FACS buffer and incubated with the antibodies in Table D and Table E per standard procedure then suspended in 200 uL FACS buffer for FACS analysis. Data was analyzed using FlowJo v10 software.

NK cells [4] = assay: In vivo expansion of NK cells (spleen immunophenotyping); set-up: species or system mice; settings: 0.5, 1, or 2 mg/kg daily for 4 days SC; spleens day 3
Description: as §1

[5] = tested on: HH cells (IL-2 CD122/CD132 (β/γ) receptor complex); assay: pSTAT5 ELISA in HH cells; format: cell-based; settings: for Selectivity HH/iTreg: higher value = greater selectivity for HH cells; for EC50: pSTAT5 level 50% of maximum, InstantOne ELISA, read-out: EC50 HH T cell; for relative selectivity for HH cells vs iTreg cells among the tested molecules: Table C
Description: (§4) The ability of the IL-2 variants to activate HH cells and iTregs was measured by monitoring relative changes in phosphorylated STAT5 (pSTAT5) in response to treatment of the cells with the IL-2 variants. pSTAT5 is known to be a downstream consequence of IL-2 signaling. HH T cells (ATCC CRL-2105) are a line of T cells that lack the alpha chain of the IL-2 receptor complex, but that contain the beta and gamma chains of the IL-2 receptor complex. iTreg cells were prepared from Fresh Leuko Paks obtained from […] Technologies (CAT #70500.1, Donor #D001003551).
(§5) For IL-2 activation, the HH cells and iTreg cells were plated at 2*10e6 cells/well in 50 ul serum-free RPMI 1640 media (Gibco), and allowed to rest at 37° C. After resting, cells were treated the IL-2 molecules listed above, and cells were then pelleted by centrifugation.
(§6) Following treatment with the IL-2 molecules, cell induction status was evaluated by the InstantOne ELISA pSTAT5 detection kit (Invitrogen).

B16F10 cells = assay: Tolerability and tumor growth inhibition in B16F10-bearing mice (Example 21); format: in vivo, mouse (C57/BL6); settings: for surviving mice: 1 mg/kg SC on days 5, 6, 7, 8, groups of 15, day 12 post first treatment; for tolerability in mice compared with Fc-IL2 and Fc-IL2v: 1 mg/kg SC on days 5-8; for tumor growth inhibition in comparison to PBS control: B16F10 SC, 1 mg/kg SC on days 5-8, surviving mice
From the text: On day 0 of the experiment, female C57/BL6 mice were subcutaneously implanted in the upper thigh with approximately 500,000 B16F10 cells, which had been freshly thawed from a single, low-passage vial (of 1*10^7 cells) and cultured for the minimum time required to establish sufficient cells for implantation.
On day 5 of the experiment, mice were randomized into groups to receive one of the molecules listed above or control. […] Tumor volumes, body weight, and animal survival were tracked throughout the course of the experiment. Animals were sacrificed once tumors reached approximately 2000 mm^3 or 2 weeks post treatment.

CD8 T cells [6] = assay: pSTAT5 flow cytometry in hPBMCs: CD8 T cells; format: cell-based, human
Description: as §2, §3

[7] = tested on: iTreg cells (IL-2 CD25/CD122/CD132 (α/β/γ) receptor complex); assay: pSTAT5 ELISA in iTreg cells; format: cell-based; settings: pSTAT5 level 50% of maximum, InstantOne ELISA; read-out: EC50 iTreg cell
Description: as §4, §5, §6

NK cells [8] = assay: pSTAT5 flow cytometry in hPBMCs: NK cells; format: cell-based, human
Description: as §2, §3

[9] = tested on: Treg cells (CD3+CD4+CD25+ Foxp3+); format: cell-based, mouse (C57BL/6); settings: protein from supernatants of virus-infected HeLa cells, 15 minutes incubation
hIL2Rα (CD25) = target: T1, hIL2Rα (CD25) (Homo sapiens, UniProt P01589); assay: Biacore 8K surface plasmon resonance, hIL2Rα (CD25); format: binding; settings: SPR, Table B
T1 construct: Purified soluble ligands were covalently coupled onto a CM5 sensor chip
T1 sequence (P01589 22-240 limits assumed): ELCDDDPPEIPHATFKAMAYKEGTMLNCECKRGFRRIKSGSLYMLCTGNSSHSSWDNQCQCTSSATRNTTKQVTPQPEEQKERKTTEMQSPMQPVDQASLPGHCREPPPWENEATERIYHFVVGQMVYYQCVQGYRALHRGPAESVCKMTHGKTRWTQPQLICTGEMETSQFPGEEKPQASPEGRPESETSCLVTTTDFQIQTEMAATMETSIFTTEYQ
Description: (§7) All experiments were performed on a Biacore 8K Surface Plasmon Resonance based biosensor (GE Healthcare). Purified soluble ligands were covalently coupled onto a CM5 sensor chip using an Amine Coupling Kit (GE Healthcare, Product #BR100050) following the manufacturer's recommendations. HBS-EP+ running buffer (10 mM HEPES pH 7.4, 0.15 M NaCl, 3 mM EDTA, 0.005% P-20), ranging in concentration was injected on all flow cells for 7 minutes at 20 μL/min. CD25 and CD122 was captured to surface densities of ˜20 and ˜500 RU, respectively. A non-derivatized flow cell was used as a reference surface. All flow cells were blocked with 100 mM ethylenediamine in 200 mM borate buffer pH 8.5 for 7 minutes at 10 μL/min.
Protein interaction experiments were performed using HBS-EP+(pH 7.4) at 25° C. on each spot. Following capture of antigens, analyte (1.23, 3.7, 11.1, 33.3, 100, 300, and 900 nM concentrations of IL-2 variants) was injected at a flow rate of 50 μL/min in all flow cells for 50 seconds. After each analyte injection, dissociation was monitored for 5 minutes, followed by regeneration of all flow cells with a 20 second injection of 10 mM glycine (pH 2.1). Buffer cycles were collected for each sample for double-referencing purposes (double-referencing as described in Myszka, D. G., Improving biosensor analysis. J. Mol. Recognit. 12, 279-284 (1999)). […]

hILR2β (CD122) = target: T2, hILR2β (CD122) (Homo sapiens, UniProt P14784); assay: Biacore 8K surface plasmon resonance, hILR2β (CD122); format: binding; settings: SPR; for Kd / hILR2β (CD122) kinetics ka / hILR2β (CD122) kinetics kd: HBS-EP+ pH 7.4, 25° C.; for binding affinity to human IL-2Rβ compared with the wild-type IL-2 Fc fusion: Table B
T2 sequence (P14784 27-240 limits assumed): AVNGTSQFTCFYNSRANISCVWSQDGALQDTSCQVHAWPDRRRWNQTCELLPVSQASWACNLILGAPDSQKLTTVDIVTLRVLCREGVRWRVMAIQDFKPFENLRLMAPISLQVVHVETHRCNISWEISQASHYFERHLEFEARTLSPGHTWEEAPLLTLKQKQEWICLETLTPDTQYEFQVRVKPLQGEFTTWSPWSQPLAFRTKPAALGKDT
Description: as §7
Protein interaction experiments were performed using HBS-EP+(pH 7.4) at 25° C. on each spot. Following capture of antigens, analyte (1.23, 3.7, 11.1, 33.3, 100, 300, and 900 nM concentrations of IL-2 variants) was injected at a flow rate of 50 μL/min in all flow cells for 50 seconds. After each analyte injection, dissociation was monitored for 5 minutes, followed by regeneration of all flow cells with a 20 second injection of 10 mM glycine (pH 2.1). Buffer cycles were collected for each sample for double-referencing purposes (double-referencing as described in Myszka, D. G., Improving biosensor analysis. J. Mol. Recognit. 12, 279-284 (1999)). For kinetic analysis, the double-referenced sensorgrams were fit globally to a simple 1:1 Langmuir with mass transport binding model using Biacore 8K Evaluation Software version 1.1.1.7442. For steady-state affinity analysis, the double-referenced equilibrium binding responses were fit with a 1:1 Langmuir steady-state model using Biacore 8K Evaluation Software version 1.1.1.7442.

Row | Molecule | expansion of CD8 T cells in vivo (CD8 T cells [1]) | proliferation of Treg cells in vivo (Treg cells [2]) | expansion of NK cells in vivo (NK cells [4]) | Selectivity HH/iTreg [5] | EC50 [5] [nM] | surviving mice (B16F10 cells) | tolerability in mice compared with Fc-IL2 and Fc-IL2v (B16F10 cells) | EC50 [7] [nM] | activity on Treg cells (concentration potency at inducing pSTAT5) compared to wild-type IL-2 [9] | relative selectivity for HH cells vs iTreg cells among the tested molecules [5] | tumor growth inhibition in comparison to PBS control (B16F10 cells) | binding to IL-2Rα (hIL2Rα (CD25)) | Kd (hILR2β (CD122)) [nM] | hILR2β (CD122) kinetics ka (hILR2β (CD122)) [M⁻¹ s⁻¹] | hILR2β (CD122) kinetics kd (hILR2β (CD122)) [s⁻¹] | binding affinity to human IL-2Rβ compared with the wild-type IL-2 Fc fusion (hILR2β (CD122)) | other results
1 | Fc-IL2-K43N:Y45T | promoted the expansion | modest increase in Treg proliferation | promoted the expansion | 3.86 × 10^−3 | 166 | 7/15 | better tolerated | 0.64 |  |  |  |  |  |  |  |  | EC50 (Treg cells [3]): 24.2 nM; Selectivity CD8/Treg (CD8 T cells [6]; larger numbers = greater selectivity for CD8 T cells over Treg cells): 0.42; EC50 (CD8 T cells [6]; pSTAT5 MFI in hPBMCs, 20 minutes at 37° C., read-out: EC50 CD8 T cell): 57.6 nM; Selectivity NK/Treg (NK cells [8]; larger numbers = greater selectivity for NK cells over Treg cells): 3.8; EC50 (NK cells [8]; pSTAT5 MFI in hPBMCs, 20 minutes at 37° C., read-out: EC50 NK cell): 6.37 nM
2 | B1 |  |  |  |  |  |  |  |  | reduced activity on Treg cells |  |  |  |  |  |  |  | 
3 | B2 | promoted the expansion | minimal effects on the proliferation of Treg cells | promoted the expansion | 6.89 × 10^−2 | 65.2 | 14/15 | better tolerated | 4.49 |  | greatest relative selectivity | significant tumor growth inhibition | do not have measurable binding to IL-2Rα | 2620 | 89900 | 0.235 | retain similar binding affinity | 
4 | B3 |  |  |  |  |  |  |  |  | reduced activity on Treg cells |  |  |  |  |  |  |  | 
5 | B4 | promoted the expansion | minimal effects on the proliferation of Treg cells | promoted the expansion | 6.47 × 10^−2 | 218 | 11/15 | better tolerated | 14.1 |  | greatest relative selectivity | significant tumor growth inhibition | do not have measurable binding to IL-2Rα | 3540 | 82600 | 0.292 | retain similar binding affinity | 
